Measured values published in paper PMC1665450, “Molecular modeling and characterization of Vibrio cholerae transcription regulator HlyU” (BMC Structural Biology, 2006).

Target: the molecule itself
Assay: not stated; unpublished results (Saha & Chakrabarti); HlyU after cleavage of the N-terminal His6-tag

B1: Vibrio cholerae transcription regulator HlyU (natural protein)
chain: MPYLKGAPMNLQEMEKNSAKAVVLLKAMANERRLQILCMLLDNELSVGELSSRLELSQSALSQHLAWLRRDGLVNTRKEAQTVFYTLSSTEVKAMIELLHRLYCQANQ
notes: also called Vc-HlyU; not shown: His6, N-terminal, cleaved
- stoichiometry N: 2
